Experimental findings from US20250051465A1 are described below.

Assay [1] has as its target extracellular domain of human LEPR, GPI-anchored on HEK293 cells (HEK293/hLEPR-GPI) (human). Briefly: FACS, HEK293/hLEPR-GPI, no added Leptin. A general note: In flow cytometry, cells or beads pass a laser one at a time.
For assay [2] the target is unchanged. Briefly: FACS, HEK293/hLEPR-GPI.
Assay [3] concerns the target full length human LEPR on cells (human) (UniProt P48357). Description: FACS, HEK293/Stat3-luc/hLEPR-FL.
The target in assay [4] is extracellular domain of human LEPR, GPI-anchored on HEK293 cells (HEK293/hLEPR-GPI) (human). Briefly: FACS, HEK293/hLEPR-GPI, 1 µM Leptin.
Assay [5] has the same target. Description: FACS, HEK293/hLEPR-GPI, 70 nM Ab.
Assay [6] addresses full length human LEPR on cells (human) (UniProt P48357). Briefly: FACS, HEK293/Stat3-luc/hLEPR-FL, 70 nM Ab.
The target of assay [7] is Macaca fascicularis LEPR extracellular domain expressed with a C-terminal myc-myc-hexahistidine tag (mfLEPR.mmh) (Macaca fascicularis). Briefly: SPR, captured mAb, 25C. On the technique in general: SPR reads the build-up and loss of mass on a sensor chip optically.
Sequence of Macaca fascicularis LEPR extracellular domain expressed with a C-terminal myc-myc-hexahistidine tag (mfLEPR.mmh) (Macaca fascicularis) (Q9MYL0 other isoform, or with tags, fused parts or gaps): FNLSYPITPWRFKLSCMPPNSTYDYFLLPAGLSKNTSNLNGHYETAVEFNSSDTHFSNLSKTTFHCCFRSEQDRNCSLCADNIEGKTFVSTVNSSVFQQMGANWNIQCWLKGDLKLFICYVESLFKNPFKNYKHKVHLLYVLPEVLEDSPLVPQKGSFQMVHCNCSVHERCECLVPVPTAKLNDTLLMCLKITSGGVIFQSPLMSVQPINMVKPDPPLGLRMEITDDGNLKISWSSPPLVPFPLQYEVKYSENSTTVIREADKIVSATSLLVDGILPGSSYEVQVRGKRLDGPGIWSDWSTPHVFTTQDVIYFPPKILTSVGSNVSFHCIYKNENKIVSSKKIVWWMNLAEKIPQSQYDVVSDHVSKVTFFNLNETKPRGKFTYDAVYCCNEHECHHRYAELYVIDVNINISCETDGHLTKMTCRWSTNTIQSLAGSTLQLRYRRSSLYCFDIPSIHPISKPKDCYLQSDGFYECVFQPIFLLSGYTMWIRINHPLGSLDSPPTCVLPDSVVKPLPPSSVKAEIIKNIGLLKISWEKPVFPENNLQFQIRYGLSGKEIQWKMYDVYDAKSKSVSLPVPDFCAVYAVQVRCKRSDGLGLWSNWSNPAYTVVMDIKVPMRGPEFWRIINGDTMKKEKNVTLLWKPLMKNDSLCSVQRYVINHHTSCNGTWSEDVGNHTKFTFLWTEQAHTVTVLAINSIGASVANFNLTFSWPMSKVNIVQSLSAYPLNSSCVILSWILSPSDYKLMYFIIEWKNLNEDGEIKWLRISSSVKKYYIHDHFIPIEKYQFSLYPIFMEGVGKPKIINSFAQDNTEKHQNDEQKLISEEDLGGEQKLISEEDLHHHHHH

Sequence of full length human LEPR on cells (human) (P48357 22-1165): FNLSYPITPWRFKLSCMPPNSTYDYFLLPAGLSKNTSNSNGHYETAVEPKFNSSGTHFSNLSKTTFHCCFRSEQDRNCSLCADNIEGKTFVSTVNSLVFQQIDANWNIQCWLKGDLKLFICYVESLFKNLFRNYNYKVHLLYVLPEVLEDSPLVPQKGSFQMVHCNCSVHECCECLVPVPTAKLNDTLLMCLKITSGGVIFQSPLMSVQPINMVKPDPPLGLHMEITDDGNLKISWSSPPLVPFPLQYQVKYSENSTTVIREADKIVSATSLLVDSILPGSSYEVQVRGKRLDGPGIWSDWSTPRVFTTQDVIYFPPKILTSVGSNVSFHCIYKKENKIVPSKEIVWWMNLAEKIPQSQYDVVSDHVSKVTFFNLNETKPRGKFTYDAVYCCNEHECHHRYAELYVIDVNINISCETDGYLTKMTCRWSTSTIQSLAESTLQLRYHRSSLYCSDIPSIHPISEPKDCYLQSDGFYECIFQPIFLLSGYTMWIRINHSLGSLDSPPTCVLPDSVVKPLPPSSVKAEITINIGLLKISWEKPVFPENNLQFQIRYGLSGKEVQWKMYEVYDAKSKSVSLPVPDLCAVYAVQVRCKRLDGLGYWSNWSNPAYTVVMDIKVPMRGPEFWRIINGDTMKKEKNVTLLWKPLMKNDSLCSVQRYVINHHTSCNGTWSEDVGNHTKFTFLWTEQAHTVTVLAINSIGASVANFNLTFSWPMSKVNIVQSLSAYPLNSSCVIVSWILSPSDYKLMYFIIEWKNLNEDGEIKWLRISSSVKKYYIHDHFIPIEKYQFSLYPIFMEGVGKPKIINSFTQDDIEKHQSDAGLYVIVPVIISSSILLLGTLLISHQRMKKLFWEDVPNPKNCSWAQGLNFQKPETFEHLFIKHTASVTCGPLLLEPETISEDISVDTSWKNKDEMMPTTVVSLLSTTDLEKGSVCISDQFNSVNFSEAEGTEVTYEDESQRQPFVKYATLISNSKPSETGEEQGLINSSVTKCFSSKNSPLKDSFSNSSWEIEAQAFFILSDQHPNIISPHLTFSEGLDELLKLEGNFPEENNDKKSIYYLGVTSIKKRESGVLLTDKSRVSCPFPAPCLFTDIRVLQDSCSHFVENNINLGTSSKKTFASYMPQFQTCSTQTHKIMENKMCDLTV

With “Alexa Fluor-647 conjugated secondary antibody (Jackson ImmunoResearch Laboratories Inc., #109-547-003)”, the Binding Ratio (fold over unstained) in assay [1] came out at 3; in assay [2], 1; in assay [3] it was 1; in assay [4], 3.

As for Isotype Control mAb (antibody), the Binding Ratio (fold over unstained) in assay [5] and in assay [6] was 2 in each case. Moreover, the 100 nM mfLEP.MMH Bound (RU) in assay [7] stood at 0 RU.
